Reference: the nanobody polyreactivity screen of Harvey et al. (2022)

Assay: yeast display, Sf9 membrane polyspecificity reagent, FACS + sequencing; frameworks hold sequencing errors
Method in brief: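 Galactose-induced (36–48 hours) yeast carrying a synthetic nanobody display library were exposed to 10% biotinylated, detergent-solubilized Sf9 membrane reagent at 4 °C for 1 hour. FACS followed streptavidin microbead enrichment, using low and high (top ~1%) gates for expression (anti-HA) and reagent binding (streptavidin). Colony PCR, MiSeq 2 × 250 sequencing and CDR-length filtering followed. Labels for polyreactivity reflect the gate of origin.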

Sequence	polyreactivity (PSR sort gate)
QVQLVESGGGLVQAGGSLRLSCAASGIIFRNYAMGWYRQAAGNERAWVAAISWTGDSTYYADSVKGRFTISRDNAKNTVYLQMNSQKPEETAVYYCAAEAYYGLWMDYWGQGTQVTVSS	low polyreactivity
QVQLVESGGGLVQAGGSLRLSCAASGSTFVQYTMGWYRQAPGKERELVAVITGGDGSTYYADSVKGRFTISRDNAKNTVYLLMNSLKPEDTAVYYCNADVYDYLRGGYEFDYWGQGTQVTVSS	low polyreactivity
QVQLVESGGGLVQAGGSLRLSCAASGRTFSYYAMGWYRPAPGKERELVARITYRGGRTYYADSVKGRFTISRDNAKNTVYLQMNSLKPEDTAVYYCATTSWRYGYDYWGQGTQVTVSS	high polyreactivity
QVQLVESGGGLVQAGGSLRLSCAASGSIFRNNAMGWYRQAPGKERELVASITRRGGSTYYADSVKGRFTISRDNAKNTVYLQMNSLKPEDTAVYYCAATTQHRYKLNYWGQGTHVTVSS	high polyreactivity
QVQLVESGGGLVQAGGSLRLSCASSGRIFYPNAMGWYRQAPGIERELVAAISSRGGSTYYADSVKGRFTISRDNAKNTVYLQMNSLKPEDTAVYYCNRVYYTIGYDYWGQGTQVSVSS	high polyreactivity
QVQLVESGGGLVQAGGSLRLSCPASGRIFVLGWYRQAPGKERELVAAINDSGDITYYADSVKGRFSISRDNAKYTVYLQMNSLKPEDTAVYYCAASAAYYGFYKSVTYDYWGQGSQVTVSS	low polyreactivity
QVQLQESGGGLVQAGGSPRLSCAASDNIFPDSVMCWYRQAPGNERELVATIGFGATTNYADSVKGRFTISRDNAKNTVYLQMNSLKTEYTAVYYCAADPLNFDYFCYWGQGTQVTVSS	low polyreactivity
QVQLVESGGGLVQAGGSLRLSCAASGSTIPSYAMGWYRQAPGKERELVASITYSDGTTRYAYSVKGRFTISRDNAKNTVYLQMNSLKPEDTAVYYCNAVYYREGMDYWGQGTQVTVSS	low polyreactivity
QVQLVESGGGLVQAGGSLRLSCAASGRIFNWYGMGWYRQAPGKERELVATISSSGDSTYYADSVKGRFTISRDNAKNTVYLQMNSLKPEDTAVFYCAKRARYKFGYWGQGSQVTVSS	high polyreactivity
QVQLVESGGGLVQAGGSLRLSCAASGLTFYGYGMGWYRQAPGKERELVASITSGGNTYYADSVKGRFTISRDNAKNTVYLRMNSLKPEDTAVYYCAVTAIALYYSSGYYWGQGTQVTVSS	low polyreactivity
QVQLVESGGGLVQAGGSLRLSCAASGFIFDYYAMGWYRQAPGKERELVAVINQSGTSTYYADSVKGRFTISRDNAKNTVYLQMNSLKPEDTAVYYCSVDYGTPVYWDEMYYWGQGTQVTVSS	low polyreactivity
QVQLVESGGGLVQAGGSHRLSCAASGRIFRVYVMGWYRQAPGKEREFVAAISRRGSRTYADSVKGRFTISRDNAKNTVYLLMNSLKTEDTAVYYWAAECGYQAHPGQGDYWGQGTQVTVSS	high polyreactivity
QVQLVESGGGLVQAGGSRRLRCAASGRIFKNYAMGWYRQAPGKERELVAAMTWSVGSTYYADSVKGRFTISRDNAKKTVYLQMNSLKPEDTAVNYCAARRSGTYRYRYEYWGQGSQVTVSS	low polyreactivity
QVQLVESGGGLVQAGGSLRLSCAASGSIFGRNAMGWYRQAPGKERELVAVISKRSGNTYYADSVKGRFTISRDNAKNTVYLQMNSLKPEDTAVYYCNAVDQKLLRYDYGGQGTQVTVSS	high polyreactivity
QVQLVESGGGLVQEGGSLRLSCAASGRTIVSNAMGWYRQAPGKERELVAAIRYGGGRTYYADSVKGRFTISRDNAKNTVYLQMNSLKPEDTAVYYCAKRSVGGTGYYWGQGTQVTVSS	high polyreactivity
QVQLVESGGGLVQAGGSLRLSCAASGLTFGYYAMGWYRQAPGKVRELVAAISRGSSTYYADSVKGRFTISRDNAKNTVYLQMNSLIPEDTAVYYCNALFSYGYWRVRYIVTQYDYWGQGTQVTVSS	high polyreactivity
QVQLVESGGGLVQAGGSLRLSCAASGSIFYYNAMGWYRQAPGKERELVAAISSSGGSTYYADSVKGRFTISRDNAKNTVYLQMNSLKPEDTAVYYCAAKLRHWAHHTKYDYWGQGTQVTVSS	low polyreactivity
QVQLVESGGGLVQAGGSLRLSCAASGSTFTVNAMGWYRQAPGKERELVAVIRKSGTSTYYADSVKGRFSISRDNAKNTVYLQMNSLKPEDTAVYYCAAGGPSTLDDYWGQGTQVTVSS	low polyreactivity
QVQLVESGGGLVQAGGSLRLSCAASGRTFRYYAMGWYRQAPGKERELVAAITVTVTSTFYADSVKGRFTISRDNAKNTVYLQMNSLKPEDTAVYYCAKVDRQYPGQYYYWGQGTQVTVSS	low polyreactivity
QVQLVESGGGLVQAGGSLRLSCAASGRTFHQYAKGWYRQAPGKERELVAAISRSGGRTYYADSVKGRFTISRDNAKNTVYLQMNSLIPEDSAVYYCNRDIGGTSVLDDYWGQGTQVTVSS	low polyreactivity
QVQLGESGGGLVQAGGSLRLSCAASGRTLSYYAMGWYRPAPGNDRELVAAISGSAGSTYYADSVKGRFTISRDNAKNTVYLQMNSLKPEDTAVYYCAAYIYSYDEGYYWGQGTQVTVSS	high polyreactivity
QVQLVESGGGLVQAGGSLRLSCAASGSIFYWNAMGWYRQAPGKERELVATITITTSTNYADSVKGRFTISRDNAKNTVYLQMNSLKPEDTAVYYCNAGAPYRYLDEYNYWGQGTQVTVSS	low polyreactivity

Sequence	polyreactivity (PSR sort gate)
QVQLVESGGGLVQAGGSLRLSCAASGSIFSGYAMGWYRQAPGKERELVAAINSNGGRTYYADSVKGRFTISRDNAKNTVYLQMNSLKPEDTAVYYCNAAKRGWYYDYYYWGQGTQVTVSS	high polyreactivity
QVQRVESGGGLVQAGGSLRLSCAASGIIFDRYAMGWYRPAPGKERELVAAISSSGGSTYYADSVKGRFTISRDNAKNTVYLQMISLKPEATAVYYCNARHRQWARGYWGQGTQVTVSS	high polyreactivity
QVQLEESGGRLVQEGGSLRLSCAASGSTFITNAMGWYRQAPGKEWELVAAITYSTGGTYYEDSVKGRFTISRDNAKNTVYLQMYSLKPEDTAVYYCAALLYFFLYDYWGQGTQVTVSS	low polyreactivity
QVQLVESGGGLVQAGGSLRLSCAASGRTFWWYAMGWYRQAPGKEREFVAAISQRGTSTYYADSVKGRFTISRDNAKNTVYLQMNSLKPEDTAVYYCAAPLYRRWEVTYDYWGQGTQVTVSS	high polyreactivity
QVQLVESGGGLVQAGGSLRLSCAASGRIFGRYAMGWYRPAPGKEREFVAAISKRGGGTYYADSVKGRFTISRDNAKNTVYLQMNSLKPEDTAVYYCAVDNSPGFDDYDYWGQGTQVTVSS	high polyreactivity
QVQLVESGGGLVQAGGSLRLSCAASGITFDYYAMGWYRQAPRKERELVPGISWGGGSTYYADSVKGRFTISRDNAKNTVYLQMNSLKPEDTAVYYCAADIVSSPSSYVPPGDYWGQGTQVTVSS	low polyreactivity
QVQIVESGGGLVQAGGSLRLSCAASGRIFRRYAMGWYRQAPGKEREFVAAISYGGGATYYADSVKGRFTISRDNAKNTFYLQMNSLKPEDTAVYYCNAEVPKSLLLYYPWGYGYWGQGTQVTVSS	low polyreactivity
QVQLVESGGGLVQAGGSLRLSCAASGSTFLKYTMGWYRQAPGKDRELVAGITRSSGSTYYADSVKGRFTISRDNAKNTVYLHMNSLKPEDTAVYYCAATVYLYTDLAYYWYGYWGQGTQVTVAS	high polyreactivity
QVQLVESGGGLVQAGGSLRLSCAASGSIFYYNALGWYRHAPGKERELVASISNGGSTDYADSVKGRFTISRDNAKNTVYLQMNSVKPEDTAVYYCNAKQSYRSDYDYWGQGTQVTVSS	low polyreactivity
QVQLVESGGGLVQAGASLRLSCAASGLIFYFYAMGWYRQAPGKERELVATIRSSTGSTYYADSVKGRFTISRDNAKNTVYLQMNSLKPEDTAVYYCNAGIKRYEWYQFDYWGQGTQVSVSS	low polyreactivity
QVQLVDSGGGLVQAGGSLRLSCAASGSTFRRNALGWYRQAPGKERELVAAITRSGGRTYYADSVKGRFTISRDNAKNTVYLQMNSLKPEDTAVYYCAARHAPTRYGYWGQGTQVTVSS	high polyreactivity
QVQLVESGGGLVQAGGILRLSCAASGRTFDSNAMGWYRQAPGKERELVAAISWSGGSTYYADSVKGRFTISRDNAKNTVYLQMNSLKPEDTAVYYCNRLGRHAPATRYGYWGQGTQVTVSS	high polyreactivity
QVQLVESGGGLVQAGGSLRLSCAASGRTFRYNAMGWYRQAPGKERELVAVINSNGGSTYYADSVKGRFTISRDNAKNTVYLQMNSLKPEDTAVYYCAADYLRIQEYDYWGQGTQVTVSS	low polyreactivity
QVQLVESGGGLVQAGGSLRLSCAASGRILYGYAMGWYRQAPGKERELVAGISWRGGSTYYADSVKGRFTISRDNAKNTVYLQMNSLKPEDTAVYYCAARGWPSQVPVRVFRYDYWGQGTQVTVSS	high polyreactivity
QVQLVESGGGLVQAGGSLRLSCAASGFTFGYYAMGWYRQAPGKERELVAAISASGASTYYADSVKGRFTISRDNAKNTVYLQMNSLKPEDTAVYYCAARPGQLTSPVTRTRYNYWGQGTQVTVSS	low polyreactivity
QVQLVESGGGLVQAGGSLRLSCAASGSIFRKNAMGRYRQAPGKERELVAAITGTGRTTYADSVKGRFTISRDNAKNTVYLQMNSLKPEDTAVYYCAADVNYYQHRLYYWGQGTQVTVSS	low polyreactivity
QVQLVESGGGLVQAGGSLRLSCAASGYTFTVYAMGWYRQAPGKERELVAAITWNGASTYYADSVKARFTISRDNAKKTVYLQMNSLKPEDTAVYNCADPNYFYRDRSRLDYWGQGTQVTVSS	low polyreactivity
QVQLVESGGGLVQAGGSLRLSCAASGSIFWNNAMGWSRQAPGKERELVAAISKSGTRTYYADSVKGRFTISRDNAKNTVYLQMNSLKPEDTAVYYCNALLRDSGTYAGDDYWGQGTQVTVSS	high polyreactivity
QVQLVESGGGLVQAGGRLRLSCAASGTIFDFYAMGWYRQAPGKERELVATITASGGSTYYADSVKGRFTISRDNAKNTVYLQMKSLKPEDTAVYYCAAVGPHWYGQGWALYRFEYWGQGTQVTVSS	low polyreactivity
QVQLVESGGGLVQAGGRLRLSCAASGFIFYFYAMGWYRQAPGKERELVAAISWSGGSPYYADSVKGRFTISRDNAKNTVYLQMNSLKPEDTAVYYCAADTRTSYYNDDYDYWGQGTQVTVSS	low polyreactivity
QVQLVESGGGLVQAGGSLRLSCAASGRIFTKYAMGWYRQSPGKERELVAAITTSGGSTYYADSVKGRFTISRDNAKNTVYLQMNSLKPEDTAVYYCAARTYHRYDYWGQGTQVTVSS	high polyreactivity
